Data on one molecule can be found in patent US20210130431A1 (published 2021).

Experiment [1] addresses T1, TCL1 70-79, alanine replacement at position 9 peptide on HLA-A*02:01 (human).
T1 peptide: SLLPIMWQAY
Put plainly: cytokine release.

The target in experiment [2] is T2, TCL1 70-79, alanine replacement at position 10 peptide on HLA-A*02:01 (human).
T2 peptide: SLLPIMWQLA
Put plainly: cytokine release.

The target of experiment [3] is T3, TCL1 70-79, glycine replacement at position 1 peptide on HLA-A*02:01 (human).
T3 peptide: GLLPIMWQLY
Briefly: cytokine release.

Experiment [4] concerns the target T4, TCL1 70-79, glycine replacement at position 2 peptide on HLA-A*02:01 (human).
T4 peptide: SGLPIMWQLY
Briefly: cytokine release.

The target of experiment [5] is T5, TCL1 70-79, glycine replacement at position 3 peptide on HLA-A*02:01 (human).
T5 peptide: SLGPIMWQLY
Put plainly: cytokine release.

Experiment [6] concerns the target T6, TCL1 70-79, glycine replacement at position 4 peptide on HLA-A*02:01 (human).
T6 peptide: SLLGIMWQLY
Briefly: cytokine release.

The target of experiment [7] is T7, TCL1 70-79, glycine replacement at position 5 peptide on HLA-A*02:01 (human).
T7 peptide: SLLPGMWQLY
Put plainly: cytokine release.

The target in experiment [8] is T8, TCL1 70-79, glycine replacement at position 6 peptide on HLA-A*02:01 (human).
T8 peptide: SLLPIGWQLY
Put plainly: cytokine release.

In experiment [9] the target is T9, TCL1 70-79, glycine replacement at position 7 peptide on HLA-A*02:01 (human).
T9 peptide: SLLPIMGQLY
Put plainly: cytokine release.

The target of experiment [10] is T10, TCL1 70-79, glycine replacement at position 8 peptide on HLA-A*02:01 (human).
T10 peptide: SLLPIMWGLY
Put plainly: cytokine release.

Experiment [11] deals with T11, TCL1 70-79, alanine replacement at position 1 peptide on HLA-A*02:01 (human).
T11 peptide: ALLPIMWQLY
Briefly: cytokine release.

Experiment [12] has as its target T12, TCL1 70-79, glycine replacement at position 9 peptide on HLA-A*02:01 (human).
T12 peptide: SLLPIMWQGY
Briefly: cytokine release.

Experiment [13] has as its target T13, TCL1 70-79, glycine replacement at position 10 peptide on HLA-A*02:01 (human).
T13 peptide: SLLPIMWQLG
Put plainly: cytokine release.

The target in experiment [14] is T14, TCL1 70-79, alanine replacement at position 2 peptide on HLA-A*02:01 (human).
T14 peptide: SALPIMWQLY
Put plainly: cytokine release.

Experiment [15] deals with T15, TCL1 70-79, alanine replacement at position 3 peptide on HLA-A*02:01 (human).
T15 peptide: SLAPIMWQLY
Briefly: cytokine release.

The target in experiment [16] is T16, TCL1 70-79, alanine replacement at position 4 peptide on HLA-A*02:01 (human).
T16 peptide: SLLAIMWQLY
Briefly: cytokine release.

In experiment [17] the target is T17, TCL1 70-79, alanine replacement at position 5 peptide on HLA-A*02:01 (human).
T17 peptide: SLLPAMWQLY
Put plainly: cytokine release.

The target in experiment [18] is T18, TCL1 70-79, alanine replacement at position 6 peptide on HLA-A*02:01 (human).
T18 peptide: SLLPIAWQLY
Briefly: cytokine release.

Experiment [19] concerns the target T19, TCL1 70-79, alanine replacement at position 7 peptide on HLA-A*02:01 (human).
T19 peptide: SLLPIMAQLY
Put plainly: cytokine release.

The target in experiment [20] is T20, TCL1 70-79, alanine replacement at position 8 peptide on HLA-A*02:01 (human).
T20 peptide: SLLPIMWALY
Briefly: cytokine release.

The target in experiment [21] is T21, TCL1 peptide on HLA-A*02:01 (human).
T21 peptide: SLLPIMWQLY
Briefly: multimer staining.

B1: TCL1-TCR (TCR, V domains shown)
Valpha: GQSLEQPSEVTAVEGAIVQINCTYQTSGFYGLSWYQQHDGGAPTFLSYNGLDGLEETGRFSSFLSRSDSYGYLLLQELQMKDSASYFCLLGSGAGSYQLTFGKGTKLSVIP
Vbeta: DAGVTQSPTHLIKTRGQHVTLRCSPISGHKSVSWYQQVLGQGPQFIFQYYEKEERGRGNFPDRFSARQFPNYSSELNVNALLLGDSALYLCASSFTDGGTYEQYFGPGTRLTVT
Turning to B1, the binding result in experiment [1] is given as “no recognition”; in experiment [2] it was “recognises”; in experiment [3] it was “recognises”; in [4], “no recognition”; in experiment [5], “no recognition”; in [6] it was “no recognition”. The binding result in experiment [7] is recorded as “no recognition”; in experiment [8] it was “no recognition”; in [9], “no recognition”; in experiment [10] it was “no recognition”; in experiment [11] it was “recognises”; in experiment [12], “no recognition”. In addition, the binding result in experiment [13] was “recognises”; in experiment [14], “no recognition”; in [15], “no recognition”; in experiment [16], “no recognition”; in experiment [17], “no recognition”; in experiment [18] it was “no recognition”. Also, the binding result in [19] is given as “no recognition”; in experiment [20], “no recognition”; in experiment [21] it was “recognises”.
